In assay [1] the target is T1, human NKG2D-Fc (human, UniProt P26718 73-216).
T1 construct: extracellular domain; also called recombinant human NKG2D-Fc; NKG2D-Fc-biotin
T1 sequence (looked up): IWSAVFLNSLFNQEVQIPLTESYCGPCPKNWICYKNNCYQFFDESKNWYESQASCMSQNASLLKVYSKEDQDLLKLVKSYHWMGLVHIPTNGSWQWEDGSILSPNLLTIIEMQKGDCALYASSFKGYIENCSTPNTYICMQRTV
The assay is described as follows: ELISA on plate-adsorbed recombinant human NKG2D-Fc, anti-human kappa-HRP, OD 450 nm. An excerpt:
(§1) The nucleic acid sequences of human, mouse or cynomolgus NKG2D ectodomains were fused with nucleic acid sequences encoding human IgG1 Fc domains and introduced into mammalian cells to be expressed. After purification, NKG2D-Fc fusion proteins were adsorbed to wells of microplates. After blocking the wells with bovine serum albumin to prevent non-specific binding, NKG2D-binding domains were titrated and added to the wells pre-adsorbed with NKG2D-Fc fusion proteins. Primary antibody binding was detected using a secondary antibody which was conjugated to horseradish peroxidase and specifically recognizes a human kappa light chain to avoid Fc cross-reactivity. 3,3′,5,5′-Tetramethylbenzidine (TMB), a substrate for horseradish peroxidase, was added to the wells to visualize the binding signal, whose absorbance was measured at 450 nm and corrected at […]. An NKG2D-binding domain clone, an isotype control or a positive control (comprising heavy chain and light chain variable domains selected from the group consisting of: SEQ ID NOs: 526-529, or anti-mouse NKG2D clones MI-6 and CX-5 available at eBioscience) was added to each well.

Assay [2] addresses T2, cynomolgus NKG2D-Fc (cynomolgus monkey, UniProt P61252 73-216).
T2 construct: extracellular domain
T2 sequence (looked up): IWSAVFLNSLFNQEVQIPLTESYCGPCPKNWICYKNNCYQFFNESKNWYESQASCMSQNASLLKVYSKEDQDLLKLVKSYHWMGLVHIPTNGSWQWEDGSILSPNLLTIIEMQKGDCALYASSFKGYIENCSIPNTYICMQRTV
The assay is described as follows: ELISA on plate-adsorbed recombinant cynomolgus NKG2D-Fc, anti-human kappa-HRP, OD 450 nm.
Text: as §1
(An ELISA detects its analyte on a solid surface through an enzyme-linked reagent.)

For assay [3], the target named is T3, mouse NKG2D-Fc (mouse, UniProt O54709 90-232).
T3 construct: extracellular domain; also called Mouse NKG2D-Fc-biotin
T3 sequence (looked up): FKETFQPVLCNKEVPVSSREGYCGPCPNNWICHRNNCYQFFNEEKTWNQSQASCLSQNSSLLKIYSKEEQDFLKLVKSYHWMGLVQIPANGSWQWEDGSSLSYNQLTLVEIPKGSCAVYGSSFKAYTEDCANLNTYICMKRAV
The assay is described as follows: ELISA on plate-adsorbed recombinant mouse NKG2D-Fc, anti-human kappa-HRP, OD 450 nm.
Text: as §1

In assay [4] the target is T4, soluble mouse Fc-human NKG2D dimer (human, UniProt P26718 78-216, limits assumed).
T4 construct: also called NKG2D-mFc; human NKG2D fused to a mouse Fc
T4 sequence (looked up): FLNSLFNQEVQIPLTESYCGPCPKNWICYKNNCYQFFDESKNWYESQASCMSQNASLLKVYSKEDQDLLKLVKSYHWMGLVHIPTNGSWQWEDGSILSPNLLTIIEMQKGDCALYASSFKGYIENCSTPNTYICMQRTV
The assay is described as follows: SPR, mAb captured by anti-hFc, 37C. The method, then:
Kinetics and affinity of various NKG2D-binding domains were assessed by surface plasmon resonance using Biacore 8K instrument (GE Healthcare). Anti-human Fe antibody was immobilized on a CM5 chip using standard amine coupling chemistry. Human monoclonal antibodies containing various NKG2D-binding domains were captured on the anti-human Fc chip at a density of approximately 100 RU. […] Surfaces were regenerated between cycles by quick injection of 10 mM glycine, pH 1.8. To obtain kinetic rate constants, double-referenced data were fit to a 1:1 interaction model using Biacore 8K Evaluation software (GE Healthcare). The equilibrium binding constant KD was determined by the ratio of dissociation constant kd and association constant kₐ (kd/kₐ).

The target of assay [5] is T5, human CEACAM5 on cells (human, UniProt P06731 35-685).
T5 construct: tumour cell lines with endogenous CEACAM5, or B16F10 engineered to express hCEACAM5; also called CEACAM5 on MKN-45, HPAF-II, SK-CO-1, LoVo, BxPC-3, Kato-III, LS-174T, ZR-75-30; hCEACAM5-B16F10
T5 sequence: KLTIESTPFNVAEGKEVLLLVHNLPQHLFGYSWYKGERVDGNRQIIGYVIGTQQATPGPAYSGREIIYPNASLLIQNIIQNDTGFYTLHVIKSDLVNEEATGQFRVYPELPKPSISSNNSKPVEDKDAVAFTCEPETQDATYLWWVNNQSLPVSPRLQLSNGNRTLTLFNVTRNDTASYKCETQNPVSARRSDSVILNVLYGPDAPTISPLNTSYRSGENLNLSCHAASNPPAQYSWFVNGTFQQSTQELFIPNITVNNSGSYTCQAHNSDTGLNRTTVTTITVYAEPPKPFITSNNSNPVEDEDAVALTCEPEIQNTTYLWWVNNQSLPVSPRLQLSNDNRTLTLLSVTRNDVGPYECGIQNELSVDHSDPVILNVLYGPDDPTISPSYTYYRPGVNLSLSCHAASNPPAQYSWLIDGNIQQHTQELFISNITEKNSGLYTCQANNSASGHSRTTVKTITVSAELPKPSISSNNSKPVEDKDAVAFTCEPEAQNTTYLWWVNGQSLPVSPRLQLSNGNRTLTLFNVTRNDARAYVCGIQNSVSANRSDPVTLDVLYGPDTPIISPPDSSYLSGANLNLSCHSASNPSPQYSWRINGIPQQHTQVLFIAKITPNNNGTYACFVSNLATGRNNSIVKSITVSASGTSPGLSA
Put plainly: flow cytometry, BxPC-3 cells.

Assay [6] addresses T5, human CEACAM5 on cells. Put plainly: flow cytometry, MKN-45 cells. (In general: In flow cytometry, cells or beads pass a laser one at a time.)
Assay [7] addresses T5, human CEACAM5 on cells. The assay is described as follows: flow cytometry, SK-CO-1 cells.
Assay [8] addresses T5, human CEACAM5 on cells. The assay is described as follows: flow cytometry, Kato-III cells.
Assay [9] addresses T5, human CEACAM5 on cells. The assay is described as follows: flow cytometry, LoVo cells.

Usually EC50 (read off the curve) stands for the concentration needed to bring the measured effect to its halfway point. The Kd is a measure of binding affinity in units of concentration. Read a low Kd as tighter binding. The koff is the first-order rate constant of dissociation. A lower koff goes with slow dissociation. As a reminder, the kon is a measure of how fast the partners come together. As a reminder, the EC50 is the midpoint of the concentration-response curve.

B1: ADI-27705 (antibody, V domains shown)
VH: QVQLQQWGAGLLKPSETLSLTCAVYGGSFSGYYWSWIRQPPGKGLEWIGEIDHSGSTNYNPSLKSRVTISVDTSKNQFSLKLSSVTAADTAVYYCARARGPWSFDPWGQGTLVTVSS
VL: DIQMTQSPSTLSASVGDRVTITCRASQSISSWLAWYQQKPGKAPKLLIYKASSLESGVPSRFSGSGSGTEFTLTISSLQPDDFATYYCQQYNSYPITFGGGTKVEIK
notes: named as a single clone only on the drawing sheets
Consider B1, for which the “EC50 (read off the curve)” value in assay [1] was approximately 0.6 nM. Moreover, the binding result in [2] and in assay [3] was “binds” each time.

B2: ADI-27741 (antibody, V domains shown)
VH: QVQLQQWGAGLLKPSETLSLTCAVYGGSFSGYYWSWIRQPPGKGLEWIGEIDHSGSTNYNPSLKSRVTISVDTSKNQFSLKLSSVTAADTAVYYCARARGPWSFDPWGQGTLVTVSS
VL: DIQMTQSPSTLSASVGDRVTITCRASQSIGSWLAWYQQKPGKAPKLLIYKASSLESGVPSRFSGSGSGTEFTLTISSLQPDDFATYYCQQSNSYYTFGGGTKVEIK
notes: as for B1
For B2, the binding result in assay [1], in assay [2] and in assay [3] was “binds” in each case.

B3: ADI-27724 (antibody, V domains shown)
VH: QVQLQQWGAGLLKPSETLSLTCAVYGGSFSGYYWSWIRQPPGKGLEWIGEIDHSGSTNYNPSLKSRVTISVDTSKNQFSLKLSSVTAADTAVYYCARARGPWSFDPWGQGTLVTVSS
VL: not shown
notes: as for B1
For the molecule B3, the “EC50 (read off the curve)” value is approximately 10 nM in [1], approximately 8 nM in [2] and approximately 8 nM in assay [3].

B4: ADI-28226 (antibody, V domains shown)
VH: QVQLQQWGAGLLKPSETLSLTCAVYGGSFSGYYWSWIRQPPGKGLEWIGEIDHSGSTNYNPSLKSRVTISVDTSKNQFSLKLSSVTAADTAVYYCARARGPWSFDPWGQGTLVTVSS
VL: DIQMTQSPSTLSASVGDRVTITCRASQSISSWLAWYQQKPGKAPKLLIYKASSLESGVPSRFSGSGSGTEFTLTISSLQPDDFATYYCQQYGSFPITFGGGTKVEIK
notes: named as a single clone only on the drawing sheets; also called C26
For the molecule B4, the binding result in assay [1], in assay [2] and in [3] was “binds” each time.

B5: ADI-27744 (A44) (antibody, V domains shown)
VH: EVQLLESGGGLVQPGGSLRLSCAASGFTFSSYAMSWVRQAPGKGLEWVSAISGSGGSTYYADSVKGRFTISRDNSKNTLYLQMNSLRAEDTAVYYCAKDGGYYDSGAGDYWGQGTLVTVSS
VL: DIQMTQSPSSVSASVGDRVTITCRASQGIDSWLAWYQQKPGKAPKLLIYAASSLQSGVPSRFSGSGSGTDFTLTISSLQPEDFATYYCQQGVSYPRTFGGGTKVEIK
For B5, in assay [4], binding was characterised by a dissociation constant (Kd) of 10.1 nM, the koff was 0.00299 s⁻¹ and the kon is 295000 M⁻¹ s⁻¹.

B6: ADI-27749 (A49) (antibody, V domains shown)
VH: EVQLVESGGGLVKPGGSLRLSCAASGFTFSSYSMNWVRQAPGKGLEWVSSISSSSSYIYYADSVKGRFTISRDNAKNSLYLQMNSLRAEDTAVYYCARGAPMGAAAGWFDPWGQGTLVTVSS
VL: DIQMTQSPSSVSASVGDRVTITCRASQGISSWLAWYQQKPGKAPKLLIYAASSLQSGVPSRFSGSGSGTDFTLTISSLQPEDFATYYCQQGVSFPRTFGGGTKVEIK
B6: in assay [4], the Kd came to 12.4 nM, the koff came to 0.00489 s⁻¹ and the on-rate (kon) amounted to 395000 M⁻¹ s⁻¹.

B7: ADI-29379 (E79) (antibody, V domains shown)
VH: QVQLVQSGAEVKKPGASVKVSCKASGYTFTSYYMHWVRQAPGQGLEWMGIINPSGGSTSYAQKFQGRVTMTRDTSTSTVYMELSSLRSEDTAVYYCARGAPNYGDTTHDYYYMDVWGKGTTVTVSS
VL: EIVMTQSPATLSVSPGERATLSCRASQSVSSNLAWYQQKPGQAPRLLIYGASTRATGIPARFSGSGSGTEFTLTISSLQSEDFAVYYCQQYDDWPFTFGGGTKVEIK
In assay [4], B7 yielded a Kd of 50.7 nM, a koff of 0.0225 s⁻¹ and a kon of 443000 M⁻¹ s⁻¹.

B8: ADI-29378 (E78) (antibody, V domains shown)
VH: QVQLVQSGAEVKKPGASVKVSCKASGYTFTSYYMHWVRQAPGQGLEWMGIINPSGGSTSYAQKFQGRVTMTRDTSTSTVYMELSSLRSEDTAVYYCAREGAGFAYGMDYYYMDVWGKGTTVTVSS
VL: EIVLTQSPATLSLSPGERATLSCRASQSVSSYLAWYQQKPGQAPRLLIYDASNRATGIPARFSGSGSGTDFTLTISSLEPEDFAVYYCQQSDNWPFTFGGGTKVEIK
In assay [4], B8 registered a Kd of 58.5 nM, a koff of 0.0487 s⁻¹ and a kon of 832000 M⁻¹ s⁻¹.

B9: AB0755 (antibody, V domains shown)
VH: QVQLVQSGAEVKKPGASVKVSCKASGYTFTAYTIHWVRQAPGQGLEWMGYINPSSGYTEYNQKFKDRTTLTADTSIPTAYMELSRLRSDDTAVYYCTREGGLLWFDYWGQGTLVTVSS
VL: DIVMTQSPDSLAVSLGERATINCKSSHSLLYGNFQNNYLAWYQQKPGQPPKLLIYWASTRESGVPDRFSGSGSGTDFTLTISSLQAEDVAVYYCQQYYSYPYTFGGGTKLEIK
notes: the scFv entries carry the stabilising cysteines, which the mAb may lack; also called mAb corresponding to AB0264
B9: the EC50 in assay [5] amounted to 3.37 nM; in assay [6], 4.69 nM; in assay [7], 5.84 nM; in assay [8], 1.16 nM; in [9] it was 2.71 nM. For the same molecule, the “Max FOB” value in [5] was 5 fold over background; in assay [6] it was 23 fold over background; in assay [7], 14 fold over background; in assay [8], 3 fold over background; in [9] it was 7 fold over background.

For the origin of these results see patent publication US20240124607A1 (Merck Sharp & Dohme, published 2024).
